According to EP2747783B1 (Ablynx N.V., dated 2017):
Values belong to the binder of their own block, whether it stands above or below them.

Legend:
[1] = molecular target: T1, human c-Met, cell membrane expressed (A549, BxPC-3, myeloma cells) (human, UniProt P08581 25-1390); assay: cell-based or functional assay
[2] = molecular target: T2, recombinant human c-Met/Fc chimera (R&D systems) (human); assay: SPR (ProteOn); c-Met/Fc captured by anti-human IgG(Fc)
T2 construct: Bought protein; also called hc-Met/Fc; hu c-Met/Fc

[3] = molecular target: T1, human c-Met, cell membrane expressed …; assay: cell-based or functional assay; remark: listed apart in the source
[4] = molecular target: T2, recombinant human c-Met/Fc chimera (R&D …); assay: Alphascreen; competition with 100 pM biotinylated hHGF for c-MET/Fc
[5] = molecular target: T1, human c-Met, cell membrane expressed …; assay: cell-based or functional assay; remark: listed apart in the source

T1 sequence (P08581 25-1390 limits assumed, form in doubt): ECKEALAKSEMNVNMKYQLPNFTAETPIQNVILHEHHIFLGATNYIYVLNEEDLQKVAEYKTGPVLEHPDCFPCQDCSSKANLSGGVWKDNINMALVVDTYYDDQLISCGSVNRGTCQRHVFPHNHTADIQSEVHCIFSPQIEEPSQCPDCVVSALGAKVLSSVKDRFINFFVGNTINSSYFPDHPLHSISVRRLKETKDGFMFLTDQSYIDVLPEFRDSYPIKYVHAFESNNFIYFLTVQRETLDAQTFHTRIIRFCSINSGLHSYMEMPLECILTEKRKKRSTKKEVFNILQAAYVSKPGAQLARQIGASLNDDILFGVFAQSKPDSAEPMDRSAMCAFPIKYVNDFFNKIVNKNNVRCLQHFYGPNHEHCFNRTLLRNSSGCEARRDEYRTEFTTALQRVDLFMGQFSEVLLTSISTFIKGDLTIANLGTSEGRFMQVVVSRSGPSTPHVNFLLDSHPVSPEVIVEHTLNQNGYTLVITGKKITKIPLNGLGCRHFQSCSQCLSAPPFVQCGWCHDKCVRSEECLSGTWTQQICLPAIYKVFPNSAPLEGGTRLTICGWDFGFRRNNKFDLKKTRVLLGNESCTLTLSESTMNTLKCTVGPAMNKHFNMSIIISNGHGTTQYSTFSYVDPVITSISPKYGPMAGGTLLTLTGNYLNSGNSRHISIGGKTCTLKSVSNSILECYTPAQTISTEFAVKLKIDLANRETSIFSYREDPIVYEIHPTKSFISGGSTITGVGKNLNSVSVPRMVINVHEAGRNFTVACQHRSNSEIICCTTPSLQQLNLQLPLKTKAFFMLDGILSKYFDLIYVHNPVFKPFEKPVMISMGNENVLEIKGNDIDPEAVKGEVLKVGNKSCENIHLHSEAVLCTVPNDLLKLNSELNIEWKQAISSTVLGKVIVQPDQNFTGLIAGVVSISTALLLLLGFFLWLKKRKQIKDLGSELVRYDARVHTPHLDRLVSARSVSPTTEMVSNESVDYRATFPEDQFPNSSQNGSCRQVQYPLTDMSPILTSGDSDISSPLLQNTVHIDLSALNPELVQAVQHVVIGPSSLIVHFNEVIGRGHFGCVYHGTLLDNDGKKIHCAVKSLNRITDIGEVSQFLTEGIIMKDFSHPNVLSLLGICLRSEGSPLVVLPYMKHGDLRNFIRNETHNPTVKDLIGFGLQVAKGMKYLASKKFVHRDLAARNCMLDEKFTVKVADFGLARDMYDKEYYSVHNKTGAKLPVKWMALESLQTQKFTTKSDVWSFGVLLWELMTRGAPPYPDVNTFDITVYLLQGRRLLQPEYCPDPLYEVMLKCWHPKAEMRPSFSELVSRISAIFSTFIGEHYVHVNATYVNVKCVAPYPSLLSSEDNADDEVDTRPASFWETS
T2 sequence (chain, as listed by the source mutant limits assumed): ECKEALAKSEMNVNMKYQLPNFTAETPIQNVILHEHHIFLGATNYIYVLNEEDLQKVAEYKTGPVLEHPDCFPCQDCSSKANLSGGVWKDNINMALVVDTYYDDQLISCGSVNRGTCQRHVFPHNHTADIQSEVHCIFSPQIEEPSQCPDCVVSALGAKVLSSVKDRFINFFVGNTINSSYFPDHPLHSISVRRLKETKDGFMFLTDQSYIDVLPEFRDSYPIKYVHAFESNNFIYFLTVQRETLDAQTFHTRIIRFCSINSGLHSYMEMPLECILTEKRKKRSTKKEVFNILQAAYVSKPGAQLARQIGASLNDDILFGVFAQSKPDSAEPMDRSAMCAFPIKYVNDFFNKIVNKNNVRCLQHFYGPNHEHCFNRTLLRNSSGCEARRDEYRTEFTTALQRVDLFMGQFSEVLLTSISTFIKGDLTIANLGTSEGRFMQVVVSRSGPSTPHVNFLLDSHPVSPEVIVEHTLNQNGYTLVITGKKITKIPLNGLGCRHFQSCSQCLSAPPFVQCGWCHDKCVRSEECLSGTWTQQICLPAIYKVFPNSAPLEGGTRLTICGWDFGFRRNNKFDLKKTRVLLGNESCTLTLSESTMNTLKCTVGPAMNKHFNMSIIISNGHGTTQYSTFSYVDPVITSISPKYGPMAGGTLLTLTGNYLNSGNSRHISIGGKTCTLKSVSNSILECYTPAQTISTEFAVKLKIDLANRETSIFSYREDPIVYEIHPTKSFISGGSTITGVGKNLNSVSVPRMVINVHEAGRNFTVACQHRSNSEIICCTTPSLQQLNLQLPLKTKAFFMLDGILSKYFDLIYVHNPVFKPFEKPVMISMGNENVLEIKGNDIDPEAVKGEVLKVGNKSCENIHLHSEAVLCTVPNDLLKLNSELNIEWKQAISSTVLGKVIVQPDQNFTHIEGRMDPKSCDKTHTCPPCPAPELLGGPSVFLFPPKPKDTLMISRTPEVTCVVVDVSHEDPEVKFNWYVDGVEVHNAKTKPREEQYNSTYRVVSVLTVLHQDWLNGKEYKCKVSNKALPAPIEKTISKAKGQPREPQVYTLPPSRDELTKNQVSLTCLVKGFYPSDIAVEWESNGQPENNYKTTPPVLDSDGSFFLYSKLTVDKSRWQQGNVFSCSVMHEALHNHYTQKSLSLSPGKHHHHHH

- IC50, HGF-dependent c-Met phosphorylation [1]: 3.8 nM
B1: 04E09(C22A/C92S) (SEQ ID NO: 25) tagged with 3xFlag-His6 (VHH)
VHH: EVQLVESGGGLVQPGGSLRLSAAASGFILDYYAIGWFRQAPGKEREGVLCIDASDDITYYADSVKGRFTISRDNAKNTVYLQMNSLKPEDTGVYYSATPIGLSSSCLLEYDYDYWGQGTLVTVSSGAADYKDHDGDYKDHDIDYKDDDDKGAAHHHHHH

- fold lower on-rate and off-rates against 04E09-9GS-Alb11 and 04E09 (C22A/C92S) [2]: 10 fold
B2: 04E09(C50S/C100bG) (SEQ ID NO: 24) tagged with 3xFlag-His6 (VHH)
VHH: EVQLVESGGGLVQPGGSLRLSCAASGFILDYYAIGWFRQAPGKEREGVLSIDASDDITYYADSVKGRFTISRDNAKNTVYLQMNSLKPEDTGVYYCATPIGLSSSGLLEYDYDYWGQGTLVTVSS

- IC50, c-Met phosphorylation [3]: 79 nM
B3: A007900184 (33H10-3xFLAG-His6) (VHH)
VHH: EVQLVESGGGLVQAGGSLRLSCAASGFTFDDYAIGWFRQAPGEEREGVSSISSTYGLTYYADSVKGRFTISSSNAKNTVYLQMNNLKPEDTAVYYCAATPIERLGLDAYEYDYWGQGTLVTVSS

- IC50, c-Met phosphorylation [3]: 12.8 nM
B4: A007901247 (VHH)
VHH: EVQLVESGGGLVQPGGSLRLSCAASGFTFDDYAIGWFRQAPGKEREGVSSISSTYGLTYYADSVKGRFTISSDNSKNTVYLQMNSLRPEDTAVYYCAATPIGLIGLDAYEYDYWGQGTLVTVSS

- IC50, Proliferation assay, plate 1 [3]: 3.69 nM
- IC50, c-Met phosphorylation [3]: 5.41 nM
B5: A007901245 (VHH)
VHH: EVQLVESGGGLVQPGGSLRLSCAASGFTFDDYAIGWFRQAPGEEREGVSSISSTYGLTYYADSVKGRFTISSDNSKNTVYLQMNSLRPEDTAVYYCAATPIGLIGLDAYEYDYWGQGTLVTVSS

- IC50, Proliferation assay, plate 1 [3]: 2.29 nM
- IC50, Proliferation assay, plate 2 [3]: 1.32 nM
- IC50, c-Met phosphorylation [3]: 2.34 nM
B6: A007901250 (VHH)
VHH: EVQLVESGGGLVQPGGSLRLSCAASGFAFDDYAIGWFRQAPGEERLGVSSISSTYGLTYYADSVKGRFTISSDNSKNTVYLQMNSLRPEDTAVYYCAATPIGLIGLDAYEYDYWGQGTLVTVSS

- IC50, Proliferation assay, plate 1 [3]: 1.88 nM
- IC50, c-Met phosphorylation [3]: 3.44 nM
B7: A007901246 (VHH)
VHH: EVQLVESGGGLVQPGGSLRLSCAASGFAFDDYAIGWFRQAPGEEREGVSSISSTYGLTYYADSVKGRFTISSDNSKNTVYLQMNSLRPEDTAVYYCAATPIGLIGLDAYEYDYWGQGTLVTVSS

- IC50, c-Met phosphorylation [3]: 11.5 nM
B8: A007901248 (VHH)
VHH: EVQLVESGGGLVQPGGSLRLSCAASGFAFDDYAIGWFRQAPGKEREGVSSISSTYGLTYYADSVKGRFTISSDNSKNTVYLQMNSLRPEDTAVYYCAATPIGLIGLDAYEYDYWGQGTLVTVSS

- IC50, c-Met phosphorylation [3]: 4.98 nM
B9: A007901251 (VHH)
VHH: EVQLVESGGGLVQPGGSLRLSCAASGFTFDDYAIGWFRQAPGKERLGVSSISSTYGLTYYADSVKGRFTISSDNSKNTVYLQMNSLRPEDTAVYYCAATPIGLIGLDAYEYDYWGQGTLVTVSS

- IC50, c-Met phosphorylation [3]: 4.16 nM
B10: A007901252 (VHH)
VHH: EVQLVESGGGLVQPGGSLRLSCAASGFAFDDYAIGWFRQAPGKERLGVSSISSTYGLTYYADSVKGRFTISSDNSKNTVYLQMNSLRPEDTAVYYCAATPIGLIGLDAYEYDYWGQGTLVTVSS

- IC50, Proliferation assay, plate 2 [3]: 1.93 nM
- IC50, c-Met phosphorylation [3]: 2.81 nM
B11: A007901249 (VHH)
VHH: EVQLVESGGGLVQPGGSLRLSCAASGFTFDDYAIGWFRQAPGEERLGVSSISSTYGLTYYADSVKGRFTISSDNSKNTVYLQMNSLRPEDTAVYYCAATPIGLIGLDAYEYDYWGQGTLVTVSS

- IC50, c-Met phosphorylation [3]: 4.84 nM
B12: A007901253 (VHH)
VHH: EVQLVESGGGLVQPGGSLRLSCAASGFTFDDYAIGWFRQAPGEEREGVSSISSTYGLTYYADPVKGRFTISSDNSKNTVYLQMNSLRPEDTAVYYCAATPIGLIGLDAYEYDYWGQGTLVTVSS

- fold improved potency as compared to 5D5 Fab v2 [4]: > 5 fold
- IC50, cMET phosphorylation assay, + HSA [5]: 4.2 nM
- IC50, cMET phosphorylation assay, - HSA [5]: 5.41 nM
B13: A007901219 (A00790105-9GS-Alb23) (bispecific antibody)
chain: DVQLVESGGGLVQPGGSLRLSCAASGFILDYYAIGWFRQAPGKEREGVLCIDASDDITYYADSVKGRFTISRDNSKNTVYLQMNSLRPEDTAVYYCATPIGLSSSCLLEYDYDYWGQGTLVTVSSGGGGSGGGSEVQLLESGGGLVQPGGSLRLSCAASGFTFRSFGMSWVRQAPGKGPEWVSSISGSGSDTLYADSVKGRFTISRDNSKNTLYLQMNSLRPEDTAVYYCTIGGSLSRSSQGTLVTVSS
notes: also called A007901219 (Alb23)

- IC50, HGF-dependent c-Met phosphorylation [1]: 3.1 nM
B14: 04E09(L49S) (SEQ ID NO: 23) tagged with 3xFlag-His6 (VHH)
VHH: EVQLVESGGGLVQPGGSLRLSCAASGFILDYYAIGWFRQAPGKEREGVSCIDASDDITYYADSVKGRFTISRDNAKNTVYLQMNSLKPEDTGVYYCATPIGLSSSCLLEYDYDYWGQGTLVTVSS
